B1: RHOBTB3 (parent)
chain: GGADIIVIKYNVNDKFSFHEVKDN

Variants of: B1
Experiment: protein stability index of a GFP-peptide fusion (GPS, HEK-293T) (PSI 1-6); higher = more stable
Details: c terminus: a fixed tail appended
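Also: lentivirally expressed fusions sorted by FACS into six bins by GFP to DsRed ratio, PSI derived from sequencing read proportions per bin multiplied by bin number.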

Protein stability index of substitutions, site by site:
I6: A 3.21; S 3.63; N 3.83; P 4.12; F 1.5; M 1.92; V 1.77; T 2.45; E 3.74; W 1.79; D 4.07; Q 3.98; K 3; R 3.1; L 3.33; G 4.03
N13: V 3.83; Y 1.67; R 1.99; D 1.88; K 2.92; A 3.68; Q 3.3; I 2.93; T 1.57; E 2.71; P 3.19; H 2.57
I5: E 3.59; D 4.15; Y 1.78; N 3.69; K 2.67; C 1.74; M 2.68; V 1.43; R 2.34; T 2.47; Q 3.45; L 3.18; H 2.39; F 1.78; G 2.82; P 3.58; S 3.31; A 1.81
I8: P 1.32; F 1.44; L 1.47; H 3.35; E 4.25; M 1.89; Y 1.59; N 4.41; Q 3.48; R 3.17; W 2.04; S 3.71; C 2.22; K 3.96; A 1.78; V 1.81; G 2.92
A3: Y 2.96; K 2.65; W 2.05; S 1.74; I 3.1; M 2.03; L 2.64; E 1.74; H 3.04; Q 2.73
D23: S 2.21; W 3.21; C 2.08; G 2.34; I 2.36; P 3.16; Q 2.76; L 3.42; V 2.83; Y 2.28; M 2.02; A 2.71; E 2.68
N24: V 3.86; L 3.07; C 2.34; M 3.25; H 2.14; R 1.86; K 2.73; I 2.21; G 3; F 3.49
G2: C 1.97; K 2.86; D 2.31; E 1.98; H 3.5; I 1.52; M 3.43; V 1.64; Y 2.69; Q 1.86; R 2.76; L 1.71; S 1.62; P 1.52
F18: C 3.13; Q 1.99; A 3.47; G 2.03; H 1.76; S 1.86; Y 2.72; M 1.87; P 1.95; T 2.63; E 1.76; R 4.04; I 1.95; K 1.78
K9: W 3.44; R 2.33; P 2.07; I 4.01; Y 2.89; A 1.67; M 3.15; F 3.82; G 3.78; D 1.66; C 2.65; H 3.31; T 2.97; L 2.84
V12: K 1.82; P 2.13; N 2.66; W 3.56; R 2.8; E 1.72; S 1.9; G 2.7; L 2.24; H 1.92; I 3.31; T 2.73; A 2.83
E20: H 1.9; N 3.38; T 1.52; P 1.33; A 1.55; M 2.91; R 2.93; W 2.67; F 2.75; L 2.02; V 2.1; K 1.88; C 3.82; D 3.45; G 2.78; I 2.61

Source: the supplement of paper PMC10567573
